Assay results taken from patent US20200102374A1 (VIB VZW, published 2020).

What was measured:
[1] = target: F protein of RSV B49 virus (respiratory syncytial virus B49); assay: cell-based or functional assay
[2] = target: F protein of RSV A2 virus (respiratory syncytial virus A2, UniProt P03420 26-574); assay: cell-based or functional assay
Chain of F protein of RSV A2 virus (P03420 26-574): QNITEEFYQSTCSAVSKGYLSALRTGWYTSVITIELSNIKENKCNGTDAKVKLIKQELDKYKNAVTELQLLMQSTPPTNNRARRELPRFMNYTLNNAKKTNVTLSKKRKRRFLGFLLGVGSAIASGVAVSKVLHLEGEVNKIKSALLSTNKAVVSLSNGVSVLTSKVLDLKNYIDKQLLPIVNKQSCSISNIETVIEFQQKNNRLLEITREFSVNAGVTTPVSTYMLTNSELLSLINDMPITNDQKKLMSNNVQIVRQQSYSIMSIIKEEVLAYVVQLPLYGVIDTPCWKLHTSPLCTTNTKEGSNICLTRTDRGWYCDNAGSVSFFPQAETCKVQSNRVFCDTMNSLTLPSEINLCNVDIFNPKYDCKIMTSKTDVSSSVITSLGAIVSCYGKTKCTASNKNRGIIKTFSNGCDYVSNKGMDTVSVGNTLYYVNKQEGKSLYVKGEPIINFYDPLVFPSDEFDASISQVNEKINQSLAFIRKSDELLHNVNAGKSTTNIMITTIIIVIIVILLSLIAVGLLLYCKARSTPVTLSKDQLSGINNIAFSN

B1: VHH-DS-Cav1-4 (VHH)
VHH: QVQLQESGGGLVQPGGSLRLSCAASGFTLDYYYIGWFRQAPGKEREAVSCISGSSGSTYYPDSVKGRFTISRDNAKNTVYLQMNSLKPEDTAVYYCATIRSSSWGGCVHYGMDYWGKGTQVTVSS
With B1 the “IC50 of neutralization of RSV B49 (plaque reduction on Vero cells)” value [1] was 0.015 nM and the “IC50 of in vitro neutralization of RSV A2 (plaque reduction on Vero cells)” value [2] was 0.021 nM.

B2: VHH-DS-Cav1-L66 (VHH)
VHH: QVQLQESGGGLVQPGGSLRLSCAASGFTLDYYYIGWFRQAPGKEREGVSCISSSHGSTYYADSVKGRFTISRDNAKNTVYLQMNSLKPEDTAVYYCATVAVAHFRGCGVDGMDYWGKGTQVTVSS
With B2 the “IC50 of neutralization of RSV B49 (plaque reduction on Vero cells)” value [1] was 0.032 nM and the “IC50 of in vitro neutralization of RSV A2 (plaque reduction on Vero cells)” value [2] was 0.032 nM.
